Source: patent US20040001839A1, “Multimers - isolated molecules comprising epitopes containing sulfated moieties, antibodies to such epitopes, and uses thereof” (priority 2000, published 2004)
One block for each binder: values may come before it. No end group written: not given here. *: point of attachment. sulfate = O=S(=O)(O)*

How the values were obtained:
[1] = biological target: T1, PSGL-1 on KG-1 cells (human) (UniProt Q14242); test: FACS, KG-1 cells, 5 ng tetramers
T1 sequence (sulfated tyrosine residues at the N-terminal site, looked up): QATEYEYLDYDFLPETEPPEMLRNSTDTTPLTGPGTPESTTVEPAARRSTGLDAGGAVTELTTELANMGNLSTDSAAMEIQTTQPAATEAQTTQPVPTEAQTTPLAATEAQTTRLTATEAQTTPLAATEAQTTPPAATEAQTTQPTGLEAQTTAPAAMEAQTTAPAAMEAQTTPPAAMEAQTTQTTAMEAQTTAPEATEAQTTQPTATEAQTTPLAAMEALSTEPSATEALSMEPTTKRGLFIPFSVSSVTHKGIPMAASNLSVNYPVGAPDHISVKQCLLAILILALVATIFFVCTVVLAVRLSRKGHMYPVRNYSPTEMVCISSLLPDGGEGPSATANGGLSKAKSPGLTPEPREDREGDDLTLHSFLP

[2] = biological target: T1, PSGL-1 on KG-1 cells (human); test: FACS, KG-1 cells
[3] = biological target: T1, PSGL-1 on KG-1 cells (human); test: FACS on KG-1 cells
[4] = biological target: Y1 scFv; test: competition ELISA: Y1 0.25 µg/well preincubated with peptide at 0.5 µM, residual binding to glycocalicin; settings: remark: other sources report otherwise
[5] = biological target: Y1 scFv; test: competition ELISA: Y1 0.25 µg/well preincubated with peptide at 200 µM, residual binding to glycocalicin; settings: remark: other sources report otherwise
[6] = biological target: Y1 scFv; test: competition ELISA: Y1 0.25 µg/well preincubated with peptide at 25 µM, residual binding to glycocalicin; settings: remark: other sources report otherwise
[7] = biological target: Y1 scFv; test: competition ELISA: Y1 0.25 µg/well preincubated with peptide at 2.5 µM, residual binding to glycocalicin; settings: remark: other sources report otherwise
[8] = biological target: Y1 scFv; test: competitive FACS: Y1-scFv 1 µg preincubated with peptide at 200 µM, residual binding to washed platelets; settings: remark: other sources report otherwise
[9] = biological target: Y1 scFv; test: competitive FACS: Y1-scFv 1 µg preincubated with peptide at 2.5 µM, residual binding to washed platelets; settings: remark: other sources report otherwise

Chain of Y1 scFv (chain, as listed by the source): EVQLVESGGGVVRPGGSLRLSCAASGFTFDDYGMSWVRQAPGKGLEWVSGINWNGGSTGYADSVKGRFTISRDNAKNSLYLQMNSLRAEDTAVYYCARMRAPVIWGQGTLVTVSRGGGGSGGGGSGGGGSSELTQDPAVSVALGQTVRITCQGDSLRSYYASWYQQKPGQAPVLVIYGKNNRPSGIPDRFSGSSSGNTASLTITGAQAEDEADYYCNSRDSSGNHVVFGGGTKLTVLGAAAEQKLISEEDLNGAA

fold higher response than other Y1 antibody forms [1]: 10 to 20 fold | fold more reactive [2]: > 100 fold | fold increase in sensitivity of the binding [3]: > 100 fold
B1: Y1-biotag tetramers with streptavidin-PE (protein, part only; not given: streptavidin-PE carrier, not shown: another chain or arm of the molecule; large carriers; small tags and cut ends)
scFv 1: MEVQLVESGGGVVRPGGSLRLSCAASGFTFDDYGMSWVRQAPGKGLEWVSGINWNGGSTGYADSVKGRFTISRDNAKNSLYLQMNSLRAEDTAVYYCARMRAPVIWGQGTLVTVSRGGGGSGGGGSGGGGSSELTQDPAVSVALGQTVRITCQGDSLRSYYASWYQQKPGQAPVLVIYGKNNRPSGIPDRFSGSSSGNTASLTITGAQAEDEADYYCNSRDSSGNHVVFGGGTKLTVLGGGGLNDIFEAQKIEWHE
scFv 2: B1 scFv 1
scFv 3: B1 scFv 1
scFv 4: B1 scFv 1
modifications: Each chain pos 251: Lys of the BirA tag carries biotin, written K. The four chains are held non-covalently on streptavidin conjugated to phycoerythrin, which is not given.

Residual Binding of Y1 (% of baseline) [4]: 89% | Residual Binding of Y1 (% of baseline) [5]: 0% | Residual Binding of Y1 (% of baseline) [6]: 25% | Residual Binding of Y1 (% of baseline) [7]: 62% | Residual Binding of Y1 (% of baseline) (Geo Mean) [8]: 5% | Residual Binding of Y1 (% of baseline) (Geo Mean) [9]: 41%
Binder: GDEGDTDLY(sulfate)DY(sulfate)Y(sulfate)PEEDTE [P-1-S]
